The stoichiometry N is the number of molecules, sites or subunits per partner or assembly.

Experiment [1] deals with NL4-3 gp140 trimer (soluble, uncleaved gp140 from the X4 HIV-1 subtype B strain NL4-3) (HIV-1 (subtype B, strain NL4-3)). Kind of experiment: negative-stain electron microscopy, single particle 3D reconstruction; purified trimers, ~0.02 mg/ml, 2% uranyl formate, about 3,000 particles per data set, C3 symmetry applied, resolution ~25 Å.
For experiment [2], the target named is NL4-3/ADA gp140 trimer (hybrid: NL4-3 gp140 with the V3 spanning region of the R5 strain ADA) (HIV-1 (subtype B, strain NL4-3) | HIV-1 (subtype B, strain ADA)). The description is as above.

“NL4-3 gp140 trimer (soluble, uncleaved gp140 from the X4 HIV-1 subtype B strain NL4-3) (domain or fragment)” gave a stoichiometry N in experiment [1] of 3.
The substance “NL4-3/ADA gp140 trimer (hybrid: NL4-3 gp140 with the V3 spanning region of the R5 strain ADA) (domain or fragment)” yielded a stoichiometry N in experiment [2] of 3.

(Values after article PMC4048260.)
